In publication PMC3252339, “Human PAPS Synthase Isoforms Are Dynamically Regulated Enzymes with Access to Nucleus and Cytoplasm” (PLoS ONE, 2012):

Biological target: the molecule itself
Experiment: SEC; analytical gel filtration on Superdex 200 10/300 GL in 20 mM Tris (pH 7.3), 180 mM NaCl, 0.1 mM EDTA, 1 mM DTT; loaded at 2-10 µM, at most three-fold diluted during the run; dimer to monomers

Protein | stoichiometry N | Kd [µM]
PAPS synthase 1 wild type (enzyme, human, UniProt O43252 1-624, looked up, also called PAPSS1; PAPSS1 wild type; source: E. coli expression strains, purified (GSH sepharose, PreScission digestion, Superdex 200)) MEIPGSLCKKVKLSNNAQNWGMQRATNVTYQAHHVSRNKRGQVVGTRGGFRGCTVWLTGLSGAGKTTVSMALEEYLVCHGIPCYTLDGDNIRQGLNKNLGFSPEDREENVRRIAEVAKLFADAGLVCITSFISPYTQDRNNARQIHEGASLPFFEVFVDAPLHVCEQRDVKGLYKKARAGEIKGFTGIDSEYEKPEAPELVLKTDSCDVNDCVQQVVELLQERDIVPVDASYEVKELYVPENKLHLAKTDAETLPALKINKVDMQWVQVLAEGWATPLNGFMREREYLQCLHFDCLLDGGVINLSVPIVLTATHEDKERLDGCTAFALMYEGRRVAILRNPEFFEHRKEERCARQWGTTCKNHPYIKMVMEQGDWLIGGDLQVLDRVYWNDGLDQYRLTPTELKQKFKDMNADAVFAFQLRNPVHNGHALLMQDTHKQLLERGYRRPVLLLHPLGGWTKDDDVPLMWRMKQHAAVLEEGVLNPETTVVAIFPSPMMYAGPTEVQWHCRARMVAGANFYIVGRDPAGMPHPETGKDLYEPSHGAKVLTMAPGLITLEIVPFRVAAYNKKKKRMDYYDSEHHEDFEFISGTRMRKLAREGQKPPEGFMAPKAWTVLTEYYKSLEKA | 2 | –
PAPS synthase 1 L119K (enzyme, human, UniProt O43252 1-624, looked up, Same construct as m1 with the point mutation made by site-directed mutagenesis; the oligonucleotides are in Information S1; also called PAPSS1 L119K; source: E. coli expression strains, purified (GSH sepharose, PreScission digestion, Superdex 200)) MEIPGSLCKKVKLSNNAQNWGMQRATNVTYQAHHVSRNKRGQVVGTRGGFRGCTVWLTGLSGAGKTTVSMALEEYLVCHGIPCYTLDGDNIRQGLNKNLGFSPEDREENVRRIAEVAKKFADAGLVCITSFISPYTQDRNNARQIHEGASLPFFEVFVDAPLHVCEQRDVKGLYKKARAGEIKGFTGIDSEYEKPEAPELVLKTDSCDVNDCVQQVVELLQERDIVPVDASYEVKELYVPENKLHLAKTDAETLPALKINKVDMQWVQVLAEGWATPLNGFMREREYLQCLHFDCLLDGGVINLSVPIVLTATHEDKERLDGCTAFALMYEGRRVAILRNPEFFEHRKEERCARQWGTTCKNHPYIKMVMEQGDWLIGGDLQVLDRVYWNDGLDQYRLTPTELKQKFKDMNADAVFAFQLRNPVHNGHALLMQDTHKQLLERGYRRPVLLLHPLGGWTKDDDVPLMWRMKQHAAVLEEGVLNPETTVVAIFPSPMMYAGPTEVQWHCRARMVAGANFYIVGRDPAGMPHPETGKDLYEPSHGAKVLTMAPGLITLEIVPFRVAAYNKKKKRMDYYDSEHHEDFEFISGTRMRKLAREGQKPPEGFMAPKAWTVLTEYYKSLEKA | 2 | < 1
PAPS synthase 1 RR111,112AA (enzyme, human, UniProt O43252 1-624, looked up, Same construct as m1 with the double mutation made by site-directed mutagenesis; the oligonucleotides are in Information S1; also called PAPSS1 RR111,112AA; source: E. coli expression strains, purified (GSH sepharose, PreScission digestion, Superdex 200)) MEIPGSLCKKVKLSNNAQNWGMQRATNVTYQAHHVSRNKRGQVVGTRGGFRGCTVWLTGLSGAGKTTVSMALEEYLVCHGIPCYTLDGDNIRQGLNKNLGFSPEDREENVAAIAEVAKLFADAGLVCITSFISPYTQDRNNARQIHEGASLPFFEVFVDAPLHVCEQRDVKGLYKKARAGEIKGFTGIDSEYEKPEAPELVLKTDSCDVNDCVQQVVELLQERDIVPVDASYEVKELYVPENKLHLAKTDAETLPALKINKVDMQWVQVLAEGWATPLNGFMREREYLQCLHFDCLLDGGVINLSVPIVLTATHEDKERLDGCTAFALMYEGRRVAILRNPEFFEHRKEERCARQWGTTCKNHPYIKMVMEQGDWLIGGDLQVLDRVYWNDGLDQYRLTPTELKQKFKDMNADAVFAFQLRNPVHNGHALLMQDTHKQLLERGYRRPVLLLHPLGGWTKDDDVPLMWRMKQHAAVLEEGVLNPETTVVAIFPSPMMYAGPTEVQWHCRARMVAGANFYIVGRDPAGMPHPETGKDLYEPSHGAKVLTMAPGLITLEIVPFRVAAYNKKKKRMDYYDSEHHEDFEFISGTRMRKLAREGQKPPEGFMAPKAWTVLTEYYKSLEKA | 2 | < 1
